From article PMC8313361
pKd: −log10 of the molar value.

molecular target: Recombinant rat SNX27 PDZ domain (residues 38-135) (rat) (UniProt Q8K4V4); experiment: ITC

| pKd | Substance |
| --- | --- |
| 4.31 | GluN2A C-terminal peptide, S1459A phospho-deficient mutant |
| 4.34 | GluN2A C-terminal peptide, wild type |
| 4.60 | GluN2A C-terminal peptide, S1459E phospho-mimetic mutant |
| 4.85 | Phosphorylated GluN2A C-terminal peptide (phospho-Ser-1459) |
